According to article PMC9284284:

Target: T1, TCP4 DNA-binding domain (Arabidopsis thaliana, UniProt Q8LPR5 45-103)
T1 sequence: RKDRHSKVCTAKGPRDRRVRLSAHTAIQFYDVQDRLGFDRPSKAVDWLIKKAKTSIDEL
Assay: EMSA

B1: SOC1-DNA (dsDNA)
DNA 1: TAATTAGTTTGTGTGGTCCTCCTCCCGATA
DNA 2: TATCGGGAGGAGGACCACACAAACTAATTA
binding result: binds
